As usually defined, the Kd is the concentration at which binding is half-saturated. For orientation: koff means a measure of how fast the partners let go of each other. The kon is the rate constant with which the complex forms.

Positions count from the first letter of the chain named. In names and notes the source's numbering stands.

Experimental findings from US20190241669A1 (published 2019) are described below.

For test [1], the target named is human BCMA (B-cell maturation antigen) (human) (UniProt Q02223). Nature of the test: cell-based or functional assay.
In test [2] the target is Human BCMA (human) (UniProt Q02223). Nature of the test: SPR, IgG immobilised, huBCMA analyte, 37 C. (In general: Surface plasmon resonance follows binding to a sensor surface in real time, without labels.)
The target in test [3] is T1, cynomolgus monkey BCMA (cynomolgus monkey, UniProt A0A2K5UD97 1-53).
T1 construct: Soluble analyte in SPR; construct not described; also called cyBCMA; Cyno BCMA
Nature of the test: SPR, IgG on chip, cyBCMA analyte, 37C.

The target of test [4] is Human BCMA (human) (UniProt Q02223). Nature of the test: SPR, IgG immobilised, huBCMA analyte, 25 C.
Test [5] concerns the target BCMA on MM1S cells (human) (UniProt Q02223). Nature of the test: cell-based or functional assay.
The target in test [6] is Human BCMA (human) (UniProt Q02223). Nature of the test: SPR, IgG on chip, huBCMA analyte.
In test [7] the target is T1, cynomolgus monkey BCMA. Nature of the test: SPR, IgG on chip, cyBCMA analyte.
Test [8] deals with BCMA (analyte of Table 4A). Nature of the test: SPR (Bio-Rad ProteOn XPR36), IgG amine-coupled, BCMA as analyte, kinetic titration; BCMA species and temperature not stated in Table 4A.
Sequence of BCMA (analyte of Table 4A) (Q02223 whole entry): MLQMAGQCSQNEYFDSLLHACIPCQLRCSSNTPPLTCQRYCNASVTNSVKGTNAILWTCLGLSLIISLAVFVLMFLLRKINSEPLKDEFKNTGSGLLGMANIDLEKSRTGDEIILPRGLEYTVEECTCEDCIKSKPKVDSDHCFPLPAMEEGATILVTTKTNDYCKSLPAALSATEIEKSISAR

T1 sequence (A0A2K5UD97 entry or part of it): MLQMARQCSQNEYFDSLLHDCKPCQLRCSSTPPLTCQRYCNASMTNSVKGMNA
Sequence of human BCMA (B-cell maturation antigen) (human) (Q02223 other isoform, or with tags, fused parts or gaps): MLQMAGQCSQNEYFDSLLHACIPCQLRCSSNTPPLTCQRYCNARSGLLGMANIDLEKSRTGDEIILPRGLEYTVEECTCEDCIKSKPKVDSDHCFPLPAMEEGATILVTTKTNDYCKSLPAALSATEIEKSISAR
Sequence of BCMA on MM1S cells (human) (Q02223 whole entry): as the sequence (Q02223 whole entry) above

B1: PC1C12-V1 BCMA specific CAR (protein)
chain: EVQLLESGGGLVQPGGSLRLSCAASGFTFSSYPMSWVRQAPGKGLEWVSAIGGSGGWSYYADSVKGRFTISRDNSKNTLYLQMNSLRAEDTAVYYCARYWPMDSWGQGTLVTVSSGGGGSGGGGSGGGGSEIVLTQSPGTLSLSPGERATLSCWLSQSVSSTYLAWYQQKPGQAPRLLIYDASSRAPGIPDRFSGSGSGTDFTLTISRLEPEDFAVYYCQQYSEWPLTFGQGTKVEIKGLAVSTISSFFPPGYQIYIWAPLAGTCGVLLLSLVITLYCKRGRKKLLYIFKQPFMRPVQTTQEEDGCSCRFPEEEEGGCELRVKFSRSADAPAYQQGQNQLYNELNLGRREEYDVLDKRRGRDPEMGGKPRRKNPQEGLYNELQKDKMAEAYSEIGMKGERRRGKGHDGLYQGLSTATKDTYDALHMQALPPR
For B1, in test [1], the % CD107a+ (in CD8+) (degranulation, CAR-T cells with MM1S cells, Donor 3) is 68.2% and the MFI CD107a+ (degranulation, CAR-T cells with MM1S cells, Donor 3) worked out at 1960 MFI.

B2: PC1-V1 BCMA specific CAR (protein)
chain: B1 chain with W57S, S58T, W154R, L155A, E224T, W225S
In test [1], B2 displayed a % CD107a+ (in CD8+) (degranulation, CAR-T cells with MM1S cells, Donor 3) of 75.6% and an MFI CD107a+ (degranulation, CAR-T cells with MM1S cells, Donor 3) of 2180 MFI.

B3: P5AC1-V1 BCMA specific CAR (protein)
chain: EVQLLESGGGLVQPGGSLRLSCAASGFTFSSYAMNWVRQAPGKGLEWVSAILSSGGSTYYADSVKGRFTISRDNSKNTLYLQMNSLRAEDTAVYYCARYWPMDIWGQGTLVTVSSGGGGSGGGGSGGGGSEIVLTQSPGTLSLSPGERATLSCRGGQSVSSSYLAWYQQKPGQAPRLLMYDASIRATGIPDRFSGSGSGTDFTLTISRLEPEDFAVYYCQQYQSWPLTFGQGTKVEIKGLAVSTISSFFPPGYQIYIWAPLAGTCGVLLLSLVITLYCKRGRKKLLYIFKQPFMRPVQTTQEEDGCSCRFPEEEEGGCELRVKFSRSADAPAYQQGQNQLYNELNLGRREEYDVLDKRRGRDPEMGGKPRRKNPQEGLYNELQKDKMAEAYSEIGMKGERRRGKGHDGLYQGLSTATKDTYDALHMQALPPR
Turning to B3, in test [1], the % CD107a+ (in CD8+) (degranulation, CAR-T cells with MM1S cells, Donor 2) was 68.6% and the MFI CD107a+ (degranulation, CAR-T cells with MM1S cells, Donor 2) turned out to be 2190 MFI.

B4: L3.PY/L3.KY/H3.YA (antibody, V domains shown)
VH: EVQLLESGGGLVQPGGSLRLSCAASGFTFGSYAMTWVRQAPGKGLEWVSAISGSGGNTFYADSVKGRFTISRDNSKNTLYLQMNSLRAEDTAVYYCARVSPIYAGMDYWGQGTLVTVSS
VL: EIVLTQSPGTLSLSPGERATLSCRASQSVSSSYLAWYQQKPGQAPRLLIYGASSRATGIPDRFSGSGSGTDFTLTISRLEPEDFAVYYCKYYPYPPSFTFGQGTKVEIK
notes: IgG
In test [2], B4 yielded a Kd of 0.28 nM, a T½ of 12.7 min, a koff of 0.000912 s⁻¹ and a kon of 3.3e+06 M⁻¹ s⁻¹. Also, in test [3], the Kd came to 2.33 nM, the “T½” value was 2.7 min, the koff amounted to 0.00428 s⁻¹ and the kon came out at 1.84e+06 M⁻¹ s⁻¹.

B5: L1.GDF/L3.NY/H3.AP (antibody, V domains shown)
VH: B4 VH with Y103A, G105P
VL: B4 VL with S30G, S31D, S32F, K90Q, Y91H, P93N
In test [4], B5 returned a Kd of 1 nM, a T½ of 8.21 min, a koff of 0.00141 s⁻¹ and a kon of 1.41e+06 M⁻¹ s⁻¹.

B6: L1.LGF/L3.KW/H3.AP (antibody, V domains shown)
VH: B4 VH with Y103A, G105P
VL: B4 VL with V29L, S30G, S32F, Y91H, P93G, Y94W
In test [4], B6 gave a Kd of 2.44 nM, a T½ of 5.1 min, a koff of 0.00227 s⁻¹ and a kon of 928000 M⁻¹ s⁻¹.

B7: L1.LGF/L3.NY/H3.AP (antibody, V domains shown)
VH: B4 VH with Y103A, G105P
VL: B4 VL with V29L, S30G, S32F, K90Q, Y91H, P93N
In test [4], B7 came in with a Kd of 0.57 nM, a T½ of 21.7 min, a koff of 0.000533 s⁻¹ and a kon of 936000 M⁻¹ s⁻¹.

B8: L1.LGF/L3.PY/H3.AP (antibody, V domains shown)
VH: B4 VH with Y103A, G105P
VL: B4 VL with V29L, S30G, S32F, K90Q, Y91H
As for B8, in test [4], the Kd was 2.12 nM, the T½ was 11.9 min, the koff worked out at 0.000969 s⁻¹ and the kon came out at 457000 M⁻¹ s⁻¹.

B9: L1.GDF/L3.KW/H3.AP (antibody, V domains shown)
VH: B4 VH with Y103A, G105P
VL: B4 VL with S30G, S31D, S32F, Y91H, P93G, Y94W
As for B9, in test [4], the Kd came to 3.93 nM, the T½ turned out to be 2.51 min, the koff was found to be 0.00461 s⁻¹ and the kon is 1.17e+06 M⁻¹ s⁻¹.

B10: P6AP-V1 (protein)
chain: EVQLLESGGGLVQPGGSLRLSCAASGFTFGSYAMTWVRQAPGKGLEWVSAISGSGGNTFYADSVKGRFTISRDNSKNTLYLQMNSLRAEDTAVYYCARVSPIAAPMDYWGQGTLVTVSSGGGGSGGGGSGGGGSEIVLTQSPGTLSLSPGERATLSCRASQLGSFYLAWYQQKPGQAPRLLIYGASSRATGIPDRFSGSGSGTDFTLTISRLEPEDFAVYYCQHYNYPPSFTFGQGTKVEIKGLAVSTISSFFPPGYQIYIWAPLAGTCGVLLLSLVITLYCKRGRKKLLYIFKQPFMRPVQTTQEEDGCSCRFPEEEEGGCELRVKFSRSADAPAYQQGQNQLYNELNLGRREEYDVLDKRRGRDPEMGGKPRRKNPQEGLYNELQKDKMAEAYSEIGMKGERRRGKGHDGLYQGLSTATKDTYDALHMQALPPR
In test [5], B10 registered a % CD107a+ (in CD8+) of 46.4% and an MFI CD107a+ of 1850.

B11: COM22-V1 BCMA specific CAR (protein)
chain: EVQLLESGGGLVQPGGSLRLSCAASGFTFSSYAMNWVRQAPGKGLEWVSAISDSGGSRWYADSVKGRFTISRDNSKNTLYLQMNSLRAEDTAVYYCTRYWPMDIWGQGTLVTVSSGGGGSGGGGSGGGGSEIVLTQSPGTLSLSPGERATLSCRASVRVSSTYLAWYQQKPGQAPRLLMYDASIRATGIPDRFSGSGSGTDFTLTISRLEPEDFAVYYCQQYMKWPLTFGQGTKVEIKGLAVSTISSFFPPGYQIYIWAPLAGTCGVLLLSLVITLYCKRGRKKLLYIFKQPFMRPVQTTQEEDGCSCRFPEEEEGGCELRVKFSRSADAPAYQQGQNQLYNELNLGRREEYDVLDKRRGRDPEMGGKPRRKNPQEGLYNELQKDKMAEAYSEIGMKGERRRGKGHDGLYQGLSTATKDTYDALHMQALPPR
In test [1], B11 returned a % CD107a+ (in CD8+) (degranulation, CAR-T cells with MM1S cells, Donor 3) of 76.1% and an MFI CD107a+ (degranulation, CAR-T cells with MM1S cells, Donor 3) of 2220 MFI.

B12: P5A-V1 BCMA specific CAR (protein)
chain: B3 chain with L52S, S53D, G155A, G156S, Q223G
Regarding B12, in test [1], the % CD107a+ (in CD8+) (degranulation, CAR-T cells with MM1S cells, Donor 2) was 77.6% and the MFI CD107a+ (degranulation, CAR-T cells with MM1S cells, Donor 2) worked out at 2670 MFI.

B13: P5AC16-V1 BCMA specific CAR (protein)
chain: B3 chain with L52S, S53D, S54F, G155A, G156S, S161D, S162L, S224T
In test [1], B13 had a % CD107a+ (in CD8+) (degranulation, CAR-T cells with MM1S cells, Donor 2) of 61.6% and an MFI CD107a+ (degranulation, CAR-T cells with MM1S cells, Donor 2) of 1860 MFI.

B14: A02_Rd4_6nM_C01 (antibody, V domains shown)
VH: EVQLLESGGGLVQPGGSLRLSCAASGFTFSSYAMNWVRQAPGKGLEWVSAITASGGSTYYADSVKGRFTISRDNSKNTLYLQMNSLRAEDTAVYYCARYWPMSLWGQGTLVTVSS
VL: EIVLTQSPGTLSLSPGERATLSCRASQSVSAYYLAWYQQKPGQAPRLLMYDASIRATGIPDRFSGSGSGTDFTLTISRLEPEDFAVYYCQQYERWPLTFGQGTKVEIK
notes: IgG
In test [6], B14 showed a Kd of 0.03 nM, a koff of 9.2e-05 s⁻¹ and a kon of 3.11e+06 M⁻¹ s⁻¹. In test [7], this molecule displayed a Kd of 0.401 nM, an off-rate (koff) of 0.000583 s⁻¹ and a kon of 1.45e+06 M⁻¹ s⁻¹. In test [8], the Kd came out at 0.024 nM, the koff is 2.8e-05 s⁻¹, the kon worked out at 1.2e+06 M⁻¹ s⁻¹ and the t1/2 was determined as 411 min.

B15: COMBO_Rd4_0.6nM_C29 (antibody, V domains shown)
VH: B14 VH with A33P, N35S, T52G, A53G, T58L, Y59P, S103D, L104I
VL: B14 VL with A31S, Y32S, E93Q, R94S
notes: IgG
Regarding B15, in test [6], the Kd was 0.019 nM, the koff was 0.000277 s⁻¹ and the kon was 1.47e+07 M⁻¹ s⁻¹. In test [7], this molecule had a Kd of 0.084 nM, an off-rate (koff) of 0.000336 s⁻¹ and a kon of 4e+06 M⁻¹ s⁻¹. In test [8], this molecule registered a dissociation constant Kd of 0.021 nM, a koff of 0.00014 s⁻¹, a kon of 6.6e+06 M⁻¹ s⁻¹ and a t1/2 of 83 min.

B16: A02_Rd4_6nM_C16 (antibody, V domains shown)
VH: B14 VH with T52S, A53D, S54F, S103D, L104I
VL: B14 VL with A31D, Y32L, E93Q, R94T
notes: IgG; also called P5AC16; P5A16
As to B16, in test [6], the Kd was determined as 0.09 nM, the koff worked out at 0.000141 s⁻¹ and the kon came to 1.56e+06 M⁻¹ s⁻¹. Besides, in test [7], the dissociation constant Kd came to 0.118 nM, the koff amounted to 0.000158 s⁻¹ and the kon is 1.34e+06 M⁻¹ s⁻¹. In addition, in test [8], the Kd came out at 0.059 nM, the koff was 6.2e-05 s⁻¹, the kon was found to be 1.1e+06 M⁻¹ s⁻¹ and the t1/2 stood at 187 min.
